First the molecules themselves.
B1: cyclo(F-R-Y-L-V-Ahp-NMeF-dC-C1Ac) (peptide)
peptide: {CH2CO}-FRYLV[Ahp(2)][NMeF][dC]
modifications: thioether N-8 (inferred); not fully specified (C-terminus); printed as cyclo(F-R-Y-L-V-Ahp-NMeF-dC-C1Ac)

These results are taken from patent US20260001914A1, “MACROCYCLIC PEPTIDES TARGETING KRAS” (Merck Sharp & Dohme LLC, priority 2022, published 2026).

Where “and” joins values, the source holds several entries; their conditions need not be identical. Equal values may be shown once. *1 amine or outer side, *2 acyl side, *3 side chain or, on linkers, in order; H or OH if unused. Where a SMILES comes first, the peptide text is derived from it. Bridges are numbered along the chain shown (N, C = ends). Where no end group is shown, it is not given here. [ ]: non-standard residue; d: D form. The star is where a group is joined. X34 = O=C(C[C@@H](Cc1ccccc1)C(=O)[*:2])C12CC(CN[*:1])(C1)C2; X18 = CNC(=N)N(C)c1ccc(C[C@H](N[*:1])C(=O)[*:2])cc1; Ala(pyrimidin-5-yl) = N[C@@H](Cc1cncnc1)C(=O)O; NMe3Pal(5-F) = CN[C@@H](Cc1cncc(F)c1)C(=O)O; X37 = O=C([C@H](Cc1cnc(F)cc1F)N[*:1])[*:2]; Ethyl(2-pyrrolidin-1-yl) = C1CCN(CC*)C1; X11 = CC(C)(F)CC[C@H](N[*:1])C(=O)[*:2]; X28 = O=C([C@H](Cc1ncccn1)N[*:1])[*:2]; Phe(2-F) = N[C@@H](Cc1ccccc1F)C(=O)O; NMe3Pal = CN[C@@H](Cc1cccnc1)C(=O)O; X1 = O=C(C12CC(CN[*:1])(C1)C2)[*:2]; NMeCha = CN[C@@H](CC1CCCCC1)C(=O)O; X17 = O=C([C@H](CCCCF)N[*:1])[*:2]; Ala(cPr) = N[C@@H](CC1CC1)C(=O)O; NMeF = CN[C@@H](Cc1ccccc1)C(=O)O; PhLac = O=C(O)[C@@H](O)Cc1ccccc1; 3Pal = N[C@@H](Cc1cccnc1)C(=O)O; Ahp(2) = CCCCC[C@H](N)C(=O)O; Cba = N[C@@H](CC1CCC1)C(=O)O; hLeu = CC(C)CC[C@H](N)C(=O)O; αMeC = C[C@](N)(CS)C(=O)O; NMeA = CN[C@@H](C)C(=O)O; Nle = CCCC[C@H](N)C(=O)O; Nva = CCC[C@H](N)C(=O)O Bounds are passed on as bounds.

As usually defined, the EC50 is the midpoint of the concentration-response curve. Read a high EC50 as a need for much substance.

The target of one experiment is phosphorylation levels of ERK1/2 in AsPC-1 (homozygous KRAS-G12D) cells (Homo sapiens, UniProt P01116, G12D). The experiment is described as follows: Cellular phospho-ERK assay in AsPC-1 cells (Alpha Screen), assay medium without fetal bovine serum.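 Note: signal taken as phospho-ERK over total ERK per well, both detected in one multiplex bead assay, EC50 from four-parameter logistic fit of dose-response curves.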 The following applies: phospho-ERK AlphaScreen, 18 h. The format is cell-based. (Alpha assays give light when donor and acceptor beads are brought close together.)
Consider `C[C@H]1C(=O)N[C@@H](Cc2cncnc2)C(=O)N[C@@H](CC2CC2)C(=O)N[C@@H](Cc2ccccc2F)C(=O)N[C@@H](CCC(C)(C)F)C(=O)N(C)[C@@H](Cc2ccccc2)C(=O)NCC23CC(C2)(C3)C(=O)C[C@@H](Cc2ccccc2)C(=O)N1C` [compound 273, cyclo(CPhe-NMeA-PyrimAla-cPrA-Phe2F-hL3F-NMeF-amBCP)] (cyclo([Ala(cPr)][Phe(2-F)][X11][NMeF][X34][NMeA][Ala(pyrimidin-5-yl)])), for which the midpoint of the response, the EC50, lay at 1230 nM.
Same read-out and setting: the value for `C[C@H]1C(=O)N[C@@H](Cc2cncnc2)C(=O)N[C@@H](CCCCF)C(=O)N[C@@H](Cc2ccccc2F)C(=O)N[C@@H](CCCCF)C(=O)N(C)[C@@H](Cc2ccccc2)C(=O)NCC23CC(C2)(C3)C(=O)O[C@@H](Cc2ccccc2)C(=O)N1C` [compound 128, cyclo(FLac-NMeA-PyrimAla-NleF-Phe2F-NleF-NMeF-amBCP)] (cyclo([NMeA][Ala(pyrimidin-5-yl)][X17][Phe(2-F)][X17][NMeF][X1][PhLac])) was 3720 nM.
The same measure, in the same setting: the result for `CC(C)CC[C@@H]1NC(=O)[C@H](Cc2ccccc2F)NC(=O)[C@H](CC2CC2)NC(=O)[C@H](Cc2ncccn2)NC(=O)[C@H](C)N(C)C(=O)[C@H](Cc2ccccc2)OC(=O)C23CC(CNC(=O)[C@H](Cc4ccccc4)N(C)C1=O)(C2)C3` [compound 281, cyclo(FLac-NMeA-2PyrimAla-cPrA-Phe2F-hL-NMeF-amBCP)] (cyclo([Ala(cPr)][Phe(2-F)][hLeu][NMeF][X1][PhLac][NMeA][X28])) reads 9890 nM.
The molecule `CCCCC[C@@H]1NC(=O)[C@H](Cc2ccc(OC)cc2)NC(=O)[C@H](CC2CCC2)NC(=O)[C@H](Cc2ccc(OCCN3CCCC3)cc2)NC(=O)[C@H](CCCNC(=N)N)NC(=O)[C@H](Cc2ccccc2)NC(=O)CSC[C@@](C)(C(N)=O)NC(=O)[C@H](Cc2ccccc2)N(C)C1=O` [compound 383, cyclo(F-R-TyrOEtPyr-cBuA-TyrOMe-Ahp-NMeF-aMeCl-ClAc)] ({CH2CO}-FRY(Ethyl(2-pyrrolidin-1-yl))[Cba]Y(Me)[Ahp(2)][NMeF][αMeC]-NH2; thioether N-8) yielded an EC50 greater than 50800 nM.
Regarding `CCCC[C@@H]1NC(=O)[C@H](Cc2cccnc2)NC(=O)[C@H](C)N(C)C(=O)[C@H](Cc2ccccc2)OC(=O)C23CC(CNC(=O)[C@H](Cc4cccnc4)N(C)C(=O)[C@H](CCC)NC(=O)[C@H](Cc4ccccc4F)NC1=O)(C2)C3` [compound 116, cyclo(FLac-NMeA-3Pal-Nle-Phe2F-Nva-NMe3Pal-amBCP)] (cyclo([3Pal][Nle][Phe(2-F)][Nva][NMe3Pal][X1][PhLac][NMeA])), the EC50 is greater than 50800 nM.
Consider `CCCC[C@@H]1NC(=O)[C@H](Cc2cccnc2)NC(=O)[C@H](C)N(C)C(=O)[C@H](Cc2ccccc2)OC(=O)C23CC(CNC(=O)[C@H](Cc4cccnc4)N(C)C(=O)[C@H](CCCC)NC(=O)[C@H](Cc4ccccc4F)NC1=O)(C2)C3` [compound 244, cyclo(FLac-NMeA-3Pal-Nle-Phe2F-Nle-NMe3Pal-amBCP)] (cyclo([3Pal][Nle][Phe(2-F)][Nle][NMe3Pal][X1][PhLac][NMeA])), for which the EC50 worked out at 7300 nM.
On the same count and under the same terms, the result for `CC(C)CC[C@@H]1NC(=O)[C@H](Cc2ccccc2F)NC(=O)[C@H](CC2CC2)NC(=O)[C@H](Cc2cccnc2)NC(=O)[C@H](C)N(C)C(=O)[C@H](Cc2ccccc2)OC(=O)C23CC(CNC(=O)[C@H](Cc4cncc(F)c4)N(C)C1=O)(C2)C3` [compound 283, cyclo(FLac-NMeA-3Pal-cPrA-Phe2F-hL-NMe3Pal5F-amBCP)] (cyclo([3Pal][Ala(cPr)][Phe(2-F)][hLeu][NMe3Pal(5-F)][X1][PhLac][NMeA])) reads 1270 nM; that for `CC(C)CC[C@@H]1NC(=O)[C@H](Cc2cnc(F)cc2F)NC(=O)[C@H](CC2CC2)NC(=O)[C@H](Cc2cncnc2)NC(=O)[C@H](C)N(C)C(=O)[C@H](Cc2ccccc2)OC(=O)C23CC(CNC(=O)[C@H](Cc4ccccc4)N(C)C1=O)(C2)C3` [compound 294, cyclo(FLac-NMeA-PyrimAla-cPrA-3Pal46F2-hL-NMeF-amBCP)] (cyclo([Ala(cPr)][X37][hLeu][NMeF][X1][PhLac][NMeA][Ala(pyrimidin-5-yl)])), 4660 nM; that for `CCCC[C@@H]1NC(=O)[C@H](Cc2ccc(N(C)C(=N)NC)cc2)NC(=O)[C@H](C)N(C)C(=O)[C@H](Cc2ccccc2)OC(=O)CSC[C@@](C)(C(N)=O)NC(=O)[C@H](Cc2cccnc2)N(C)C(=O)[C@H](CCCC)NC(=O)[C@H](Cc2ccccc2F)NC1=O` [compound 397, cyclo(FLac-NMeA-Phe4GnMeMe-Nle-Phe2F-Nle-NMe3Pal-aMeCl-ClAc)] ({CH2CO}-[PhLac][NMeA][X18][Nle][Phe(2-F)][Nle][NMe3Pal][αMeC]-NH2; thioether N-8), greater than 50800 nM.
Still for that read-out and setting: the result for `CCCC[C@@H]1NC(=O)[C@H](Cc2cccnc2)NC(=O)[C@H](C)N(C)C(=O)[C@H](Cc2ccccc2)OC(=O)C23CC(CNC(=O)[C@H](CC4CCCCC4)N(C)C(=O)[C@H](CCCC)NC(=O)[C@H](Cc4ccccc4F)NC1=O)(C2)C3` [compound 232, cyclo(FLac-NMeA-3Pal-Nle-Phe2F-Nle-NMeCha-amBCP)] (cyclo([3Pal][Nle][Phe(2-F)][Nle][NMeCha][X1][PhLac][NMeA])) reads greater than 50800 nM.

A further experiment deals with Biotin-labeled KRAS-G12D protein (UniProt P01116-2 1-169, limits assumed, biotin label (site not stated); loaded with BODIPY-GDP). The experiment is described as follows: cell-based or functional assay.
Conditions: not given
In turn, “cyclo(F-R-3Pal-cBuA-TyrOMe-Nle-NMeF-amBCP) (peptide)” registered an SOS assay EC50 of 5.47 nM.
Take “cyclo(F-R-3Pal-cBuA-SerOMe-Nle-NMeF-aMeC1-C1Ac) (peptide)”: the SOS assay EC50 was 943 nM.
The same measure, in the same setting: the result for “cyclo(Y-Orn-3Pal-cBuA-TyrOMe-Nle-NMe3Pal-daMeC1-C1Ac) (peptide)” reads 659 nM.
On the same count and under the same terms, the value for “cyclo(F-R-3Pal-Nle-deHLeu-Nle-NMe3Pal-aMeC1-C1Ac) (peptide)” was 526 nM; that for “cyclo(F-IPG-d3Pal-cBuA-Phe2F-Nle-NMe3Pal-amBCP) (peptide)” was 1230 nM; that for “cyclo(NMeF-NMeDabN3-3Pal-Nle-Phe2F-Nle-NMe3Pal-c3amCblc) (peptide)” was 8470 nM.
On the same count and under the same terms, the value for “cyclo(F-R-3Pal-cBuA-Pra-Nle-NMeF-aMeC1-C1Ac) (peptide)” was 298 nM; that for “cyclo(F-R-d3Pal-cBuA-Phe2F-Nle-NMe3Pal-amBYA) (peptide)” was 387 nM; that for “cyclo(Phe4F-R-LysN3-Nle-Y-Nle-NMeF-Cysteamine-C1Ac) (peptide)” was 3530 nM.
On to “cyclo(F-R-3Pal-cBuA-TyrOMe-124triazole-dC~C1Ac) (peptide)”, for which the SOS assay EC50 is 2820 nM.
The same measure, in the same setting: the value for “cyclo(Phe4F-R-4Pal-hIle-TyrOMe-Nva-NMeF-dC-C1Ac) (peptide)” was 2060 nM.
With “cyclo(F-DabN3-3Pal-Nle-Phe2F-Nle-NMe3Pal-c3amCb1c) (peptide)”, the SOS assay EC50 stood at 830 nM.
“cyclo(F-R-3Pal-Nle-TyrOMe-Nle-NMeF-13amCb1c) (peptide)”: the SOS assay EC50 stood at 186 nM.
Take “cyclo(Phe4F-R-4Pal-L-TyrOMe-Nva-NMeF-dC6-C1Ac) (peptide)”: the SOS assay EC50 was 369 nM.
In turn, “cyclo(Phe4F-R-4Pal-Nle-TyrOMe-Nle-NMeF-Cysteamine-C1Ac) (peptide)” yielded an SOS assay EC50 of 432 nM.
On the same count and under the same terms, the value for “cyclo(F-R-3Pal-Nle-SerOMe-Nle-NMe3Pal-aMeC1-C1Ac) (peptide)” was 6390 nM; that for “cyclo(F-R-d3Pal-cBuA-Phe2F-Nle-NMe3Pal-BCP) (peptide)” was 1140 nM.
“cyclo(F-R-3Pal-cBuA-TyrOMe-AheNMeHag-aMeC-C1Ac) peak 1 (peptide)”: the SOS assay EC50 is 1560 nM and 324 nM.
“cyclo(F-R-hS-cBuA-Phe2F-Nle-NMeF-aMeC1-C1Ac) (peptide)” displayed an SOS assay EC50 of 503 nM.
Same read-out and setting: the result for “cyclo(Y-hS-3Pal-cBuA-Phe2F-Nle-NMe3Pal-daMeC1-C1Ac) (peptide)” reads 6680 nM.
As to “cyclo(F-R-3Pal-cBuA-TyrOMe-RdHagNMeHag-aMeC-C1Ac) (peptide)”, the SOS assay EC50 was 299 nM.
“cyclo(F-R-4F3Pal-cBuA-Phe2F-Nle-NMe3Pal-daMeC1-C1Ac) (peptide)” registered an SOS assay EC50 of 1.26 nM.
In turn, “cyclo(F-NMeDabN3-3Pal-Nle-Phe2F-Nle-NMe3Pal-c3amCb1c) (peptide)” displayed an SOS assay EC50 of 753 nM.
Same read-out and setting: the result for “cyclo(Phe3F-R-4Pal-L-TyrOMe-Nva-NMeF-dC1-C1Ac) (peptide)” reads 3750 nM; that for “cyclo(Phe4NH2-Om-3Pal-cBuA-TyrOMe-Nle-NMe3Pal-daMeC1-C1Ac) (peptide)”, 1060 nM.
Molecule “cyclo(F-R-3Pal-Nle-TyrOMe-Nle-NMeF-cBuTE-C1Ac) (peptide)” came in with an SOS assay EC50 of 3440 nM.
On the same count and under the same terms, the result for “cyclo(F-R-3Pal-cBuA-TyrOMe-AheNMeHag-aMeC-C1Ac) peak 2 (peptide)” reads 650 nM.
Same read-out and setting: the value for “cyclo(1Nal-R~Phe4Gn-Nle-Y-Nle-NMeF-daMeC-C1Ac) (peptide)” was 575 nM; that for “cyclo(F-OmN3-3Pal-Nle-Phe2F-Nle-NMe3Pal-c3amCblc) (peptide)” was 5590 nM.
The same measure, in the same setting: the value for “cyclo(F-R-3Pal-Nle-Phe2F-Nle-NMe3Pal-aMeC7-C1Ac) (peptide)” was 728 nM; that for “cyclo(F-R-3Pal-Nle-TyrOMe-Nle-NMeF-cHxclacid4NH2) (peptide)” was 256 nM; that for “cyclo(dF-R-3Pal-Nie-TyrOMe-Nle-NMeF-c3amCblc) (peptide)” was 222 nM.
In turn, “cyclo(F-R-Phe4Gn-Nle-TyrOMe-Nle-NMeF-SamHex) (peptide)” had an SOS assay EC50 of 142 nM.
On the same count and under the same terms, the value for B1 was 7140 nM.
